T1: human CD19 (human, UniProt P15391 20-556)
T1 construct: also called B-cell surface antigen B4; B-cell antigen CD19
T1 sequence: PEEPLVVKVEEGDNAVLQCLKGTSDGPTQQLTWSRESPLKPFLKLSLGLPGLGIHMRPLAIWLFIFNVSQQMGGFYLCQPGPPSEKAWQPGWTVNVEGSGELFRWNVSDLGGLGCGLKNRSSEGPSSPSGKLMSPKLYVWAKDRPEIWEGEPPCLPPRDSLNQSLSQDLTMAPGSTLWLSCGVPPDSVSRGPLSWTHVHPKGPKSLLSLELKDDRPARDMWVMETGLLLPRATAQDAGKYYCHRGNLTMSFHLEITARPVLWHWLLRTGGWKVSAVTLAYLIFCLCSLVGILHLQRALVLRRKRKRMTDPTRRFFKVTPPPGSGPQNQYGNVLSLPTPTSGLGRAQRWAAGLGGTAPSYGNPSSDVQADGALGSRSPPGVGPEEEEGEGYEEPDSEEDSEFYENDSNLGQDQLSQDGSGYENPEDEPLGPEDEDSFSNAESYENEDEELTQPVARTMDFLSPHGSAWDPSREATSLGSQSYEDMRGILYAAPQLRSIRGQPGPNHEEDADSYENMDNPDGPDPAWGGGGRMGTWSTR


Each binder was assayed against T1, human CD19 (assay: binding affinity relative to the parent H1L1 mAb (Example 5); assay and format not named on the sheet).

| Fold change binding [fold] | Binder |
| --- | --- |
| 3.97 | H1.201 / L1.162 (antibody, V domains shown, vs H1L1 (Kabat): VH D55S/S100cT; VL L27cQ/S27eA/G29A/A55N/F96I; also called 4G7 H1.201_L1.162) VH: EVQLVESGGGLVKPGGSLKLSCAASGYTFTSYVMHWVRQAPGKGLEWIGYINPYNSGTKYNEKFQGRVTISSDKSISTAYMELSSLRSEDTAMYYCARGTYYYGTRVFDYWGQGTLVTVSS VL: DIVMTQSPATLSLSPGERATLSCRSSKSLQNANANTYLYWFQQKPGQSPQLLIYRMSNLNSGVPDRFSGSGSGTEFTLTISSLEPEDFAVYYCMQHLEYPITFGAGTKLEIK |
| 5.57 | H1.52 / L1.162 (antibody, V domains shown, vs H1L1 (Kabat): VH S100cT; VL L27cQ/S27eA/G29A/A55N/F96I; also called 4G7 H1.52_L1.162) VH: EVQLVESGGGLVKPGGSLKLSCAASGYTFTSYVMHWVRQAPGKGLEWIGYINPYNDGTKYNEKFQGRVTISSDKSISTAYMELSSLRSEDTAMYYCARGTYYYGTRVFDYWGQGTLVTVSS VL: DIVMTQSPATLSLSPGERATLSCRSSKSLQNANANTYLYWFQQKPGQSPQLLIYRMSNLNSGVPDRFSGSGSGTEFTLTISSLEPEDFAVYYCMQHLEYPITFGAGTKLEIK |
| 3.87 | H1.201 / L1.163 (antibody, V domains shown, vs H1L1 (Kabat): VH D55S/S100cT; VL L27cQ/S27eA/G29S/A55N/F96I; also called 4G7 H1.201_L1.163) VH: EVQLVESGGGLVKPGGSLKLSCAASGYTFTSYVMHWVRQAPGKGLEWIGYINPYNSGTKYNEKFQGRVTISSDKSISTAYMELSSLRSEDTAMYYCARGTYYYGTRVFDYWGQGTLVTVSS VL: DIVMTQSPATLSLSPGERATLSCRSSKSLQNANSNTYLYWFQQKPGQSPQLLIYRMSNLNSGVPDRFSGSGSGTEFTLTISSLEPEDFAVYYCMQHLEYPITFGAGTKLEIK |
| 3.57 | H1.202 / L1.163 (antibody, V domains shown, vs H1L1 (Kabat): VH D55E/S100cT; VL L27cQ/S27eA/G29S/A55N/F96I; also called 4G7 H1.202_L1.163) VH: EVQLVESGGGLVKPGGSLKLSCAASGYTFTSYVMHWVRQAPGKGLEWIGYINPYNEGTKYNEKFQGRVTISSDKSISTAYMELSSLRSEDTAMYYCARGTYYYGTRVFDYWGQGTLVTVSS VL: DIVMTQSPATLSLSPGERATLSCRSSKSLQNANSNTYLYWFQQKPGQSPQLLIYRMSNLNSGVPDRFSGSGSGTEFTLTISSLEPEDFAVYYCMQHLEYPITFGAGTKLEIK |
| 3.2 | H1.203 / L1.163 (antibody, V domains shown, vs H1L1 (Kabat): VH D55S/K58E/S100cT; VL L27cQ/S27eA/G29S/A55N/F96I; also called 4G7 H1.203_L1.163) VH: EVQLVESGGGLVKPGGSLKLSCAASGYTFTSYVMHWVRQAPGKGLEWIGYINPYNSGTEYNEKFQGRVTISSDKSISTAYMELSSLRSEDTAMYYCARGTYYYGTRVFDYWGQGTLVTVSS VL: DIVMTQSPATLSLSPGERATLSCRSSKSLQNANSNTYLYWFQQKPGQSPQLLIYRMSNLNSGVPDRFSGSGSGTEFTLTISSLEPEDFAVYYCMQHLEYPITFGAGTKLEIK |
| 5.32 | H1.191 / L1.163 (antibody, V domains shown, vs H1L1 (Kabat): VH K58E/S100cT; VL L27cQ/S27eA/G29S/A55N/F96I; also called 4G7 H1.191_L1.163) VH: EVQLVESGGGLVKPGGSLKLSCAASGYTFTSYVMHWVRQAPGKGLEWIGYINPYNDGTEYNEKFQGRVTISSDKSISTAYMELSSLRSEDTAMYYCARGTYYYGTRVFDYWGQGTLVTVSS VL: DIVMTQSPATLSLSPGERATLSCRSSKSLQNANSNTYLYWFQQKPGQSPQLLIYRMSNLNSGVPDRFSGSGSGTEFTLTISSLEPEDFAVYYCMQHLEYPITFGAGTKLEIK |
| 4.73 | H1.204 / L1.163 (antibody, V domains shown, vs H1L1 (Kabat): VH D55E/K58E/S100cT; VL L27cQ/S27eA/G29S/A55N/F96I; also called 4G7 H1.204_L1.163) VH: EVQLVESGGGLVKPGGSLKLSCAASGYTFTSYVMHWVRQAPGKGLEWIGYINPYNEGTEYNEKFQGRVTISSDKSISTAYMELSSLRSEDTAMYYCARGTYYYGTRVFDYWGQGTLVTVSS VL: DIVMTQSPATLSLSPGERATLSCRSSKSLQNANSNTYLYWFQQKPGQSPQLLIYRMSNLNSGVPDRFSGSGSGTEFTLTISSLEPEDFAVYYCMQHLEYPITFGAGTKLEIK |
| 4.07 | H1.204 / L1.162 (antibody, V domains shown, vs H1L1 (Kabat): VH D55E/K58E/S100cT; VL L27cQ/S27eA/G29A/A55N/F96I; also called 4G7 H1.204_L1.162) VH: EVQLVESGGGLVKPGGSLKLSCAASGYTFTSYVMHWVRQAPGKGLEWIGYINPYNEGTEYNEKFQGRVTISSDKSISTAYMELSSLRSEDTAMYYCARGTYYYGTRVFDYWGQGTLVTVSS VL: DIVMTQSPATLSLSPGERATLSCRSSKSLQNANANTYLYWFQQKPGQSPQLLIYRMSNLNSGVPDRFSGSGSGTEFTLTISSLEPEDFAVYYCMQHLEYPITFGAGTKLEIK |
| 3.35 | H1.191 / L1.162 (antibody, V domains shown, vs H1L1 (Kabat): VH K58E/S100cT; VL L27cQ/S27eA/G29A/A55N/F96I; also called 4G7 H1.191_L1.162) VH: EVQLVESGGGLVKPGGSLKLSCAASGYTFTSYVMHWVRQAPGKGLEWIGYINPYNDGTEYNEKFQGRVTISSDKSISTAYMELSSLRSEDTAMYYCARGTYYYGTRVFDYWGQGTLVTVSS VL: DIVMTQSPATLSLSPGERATLSCRSSKSLQNANANTYLYWFQQKPGQSPQLLIYRMSNLNSGVPDRFSGSGSGTEFTLTISSLEPEDFAVYYCMQHLEYPITFGAGTKLEIK |

More lines, now with the values behind:

| Binder | Fold change binding [fold] |
| --- | --- |
| H1.52 / L1.161 (antibody, V domains shown, vs H1L1 (Kabat): VH S100cT; VL L27cQ/S27eV/G29S/A55N/F96I; also called 4G7 H1.52_L1.161) VH: EVQLVESGGGLVKPGGSLKLSCAASGYTFTSYVMHWVRQAPGKGLEWIGYINPYNDGTKYNEKFQGRVTISSDKSISTAYMELSSLRSEDTAMYYCARGTYYYGTRVFDYWGQGTLVTVSS VL: DIVMTQSPATLSLSPGERATLSCRSSKSLQNVNSNTYLYWFQQKPGQSPQLLIYRMSNLNSGVPDRFSGSGSGTEFTLTISSLEPEDFAVYYCMQHLEYPITFGAGTKLEIK | 3.18 |
| H1.203 / L1.162 (antibody, V domains shown, vs H1L1 (Kabat): VH D55S/K58E/S100cT; VL L27cQ/S27eA/G29A/A55N/F96I; also called 4G7 H1.203_L1.162) VH: EVQLVESGGGLVKPGGSLKLSCAASGYTFTSYVMHWVRQAPGKGLEWIGYINPYNSGTEYNEKFQGRVTISSDKSISTAYMELSSLRSEDTAMYYCARGTYYYGTRVFDYWGQGTLVTVSS VL: DIVMTQSPATLSLSPGERATLSCRSSKSLQNANANTYLYWFQQKPGQSPQLLIYRMSNLNSGVPDRFSGSGSGTEFTLTISSLEPEDFAVYYCMQHLEYPITFGAGTKLEIK | 3.25 |
| H1.201 / L1.164 (antibody, V domains shown, vs H1L1 (Kabat): VH D55S/S100cT; VL L27cQ/S27eA/A55N/F96I; also called 4G7 H1.201_L1.164) VH: EVQLVESGGGLVKPGGSLKLSCAASGYTFTSYVMHWVRQAPGKGLEWIGYINPYNSGTKYNEKFQGRVTISSDKSISTAYMELSSLRSEDTAMYYCARGTYYYGTRVFDYWGQGTLVTVSS VL: DIVMTQSPATLSLSPGERATLSCRSSKSLQNANGNTYLYWFQQKPGQSPQLLIYRMSNLNSGVPDRFSGSGSGTEFTLTISSLEPEDFAVYYCMQHLEYPITFGAGTKLEIK | 4.41 |
| H1.202 / L1.162 (antibody, V domains shown, vs H1L1 (Kabat): VH D55E/S100cT; VL L27cQ/S27eA/G29A/A55N/F96I; also called 4G7 H1.202_L1.162) VH: EVQLVESGGGLVKPGGSLKLSCAASGYTFTSYVMHWVRQAPGKGLEWIGYINPYNEGTKYNEKFQGRVTISSDKSISTAYMELSSLRSEDTAMYYCARGTYYYGTRVFDYWGQGTLVTVSS VL: DIVMTQSPATLSLSPGERATLSCRSSKSLQNANANTYLYWFQQKPGQSPQLLIYRMSNLNSGVPDRFSGSGSGTEFTLTISSLEPEDFAVYYCMQHLEYPITFGAGTKLEIK | 4.32 |
| H1.52 / L1.163 (antibody, V domains shown, vs H1L1 (Kabat): VH S100cT; VL L27cQ/S27eA/G29S/A55N/F96I; also called 4G7 H1.52_L1.163) VH: EVQLVESGGGLVKPGGSLKLSCAASGYTFTSYVMHWVRQAPGKGLEWIGYINPYNDGTKYNEKFQGRVTISSDKSISTAYMELSSLRSEDTAMYYCARGTYYYGTRVFDYWGQGTLVTVSS VL: DIVMTQSPATLSLSPGERATLSCRSSKSLQNANSNTYLYWFQQKPGQSPQLLIYRMSNLNSGVPDRFSGSGSGTEFTLTISSLEPEDFAVYYCMQHLEYPITFGAGTKLEIK | 3.74 |
| H1.204 / L1.161 (antibody, V domains shown, vs H1L1 (Kabat): VH D55E/K58E/S100cT; VL L27cQ/S27eV/G29S/A55N/F96I; also called 4G7 H1.204_L1.161) VH: EVQLVESGGGLVKPGGSLKLSCAASGYTFTSYVMHWVRQAPGKGLEWIGYINPYNEGTEYNEKFQGRVTISSDKSISTAYMELSSLRSEDTAMYYCARGTYYYGTRVFDYWGQGTLVTVSS VL: DIVMTQSPATLSLSPGERATLSCRSSKSLQNVNSNTYLYWFQQKPGQSPQLLIYRMSNLNSGVPDRFSGSGSGTEFTLTISSLEPEDFAVYYCMQHLEYPITFGAGTKLEIK | 3.27 |
| H1.203 / L1.164 (antibody, V domains shown, vs H1L1 (Kabat): VH D55S/K58E/S100cT; VL L27cQ/S27eA/A55N/F96I; also called 4G7 H1.203_L1.164) VH: EVQLVESGGGLVKPGGSLKLSCAASGYTFTSYVMHWVRQAPGKGLEWIGYINPYNSGTEYNEKFQGRVTISSDKSISTAYMELSSLRSEDTAMYYCARGTYYYGTRVFDYWGQGTLVTVSS VL: DIVMTQSPATLSLSPGERATLSCRSSKSLQNANGNTYLYWFQQKPGQSPQLLIYRMSNLNSGVPDRFSGSGSGTEFTLTISSLEPEDFAVYYCMQHLEYPITFGAGTKLEIK | 5.58 |

Each binder was assayed against T1, human CD19 (assay: DELFIA competition on Raji cells: unlabeled antibody competes with Eu-labeled anti-CD19 for surface CD19 [upper panel]).

| binding result | Binder |
| --- | --- |
| binds | H3L1 (antibody, V domains shown, also called 4G7 H3L1) VH: EVQLVESGGGLVQPGRSLRLSCAASGYTFTSYVMHWVRQMPGKGLEWMGYINPYNDGTKYNEKFQGRVTITSDKSTSTAYMELSRLRSDDTAVYYCARGTYYYGSRVFDYWGQGTLVTVSS VL: DIVMTQSPATLSLSPGERATLSCRSSKSLLNSNGNTYLYWFQQKPGQSPQLLIYRMSNLASGVPDRFSGSGSGTEFTLTISSLEPEDFAVYYCMQHLEYPFTFGAGTKLEIK |
| binds | H2L1 (antibody, V domains shown, also called 4G7 H2L1) VH: QVQLQESGSGLVKPGGSLRLSCAASGYTFTSYVMHWVRQAPGKGLEWMGYINPYNDGTKYNESLKSRVTISSDKSISTAYMELSSLRAEDTAVYYCARGTYYYGSRVFDYWGQGTLVTVSS VL: DIVMTQSPATLSLSPGERATLSCRSSKSLLNSNGNTYLYWFQQKPGQSPQLLIYRMSNLASGVPDRFSGSGSGTEFTLTISSLEPEDFAVYYCMQHLEYPFTFGAGTKLEIK |
| binds | H1L2 (antibody, V domains shown, also called 4G7 H1L2) VH: EVQLVESGGGLVKPGGSLKLSCAASGYTFTSYVMHWVRQAPGKGLEWIGYINPYNDGTKYNEKFQGRVTISSDKSISTAYMELSSLRSEDTAMYYCARGTYYYGSRVFDYWGQGTLVTVSS VL: DIVMTQSPSSLSASVGDRVTISCRSSKSLLNSNGNTYLYWFQQKPGQSPQLLIYRMSNLASGVPDRFSGSGSGTEFTLTISSLQPEDVAVYYCMQHLEYPFTFGAGTKLEIK |

From patent publication US20100272723A1 (Xencor, published 2010)
